The test addresses T1, AXL on the surfaces of human tumour cells (A549, MDA-MB-231, 786-O) (human, UniProt P30530 27-894).
T1 construct: Endogenous AXL on human tumour cell lines; The tie to the cell-line protein rests on this general definition only; also called cell surface antigen
T1 sequence: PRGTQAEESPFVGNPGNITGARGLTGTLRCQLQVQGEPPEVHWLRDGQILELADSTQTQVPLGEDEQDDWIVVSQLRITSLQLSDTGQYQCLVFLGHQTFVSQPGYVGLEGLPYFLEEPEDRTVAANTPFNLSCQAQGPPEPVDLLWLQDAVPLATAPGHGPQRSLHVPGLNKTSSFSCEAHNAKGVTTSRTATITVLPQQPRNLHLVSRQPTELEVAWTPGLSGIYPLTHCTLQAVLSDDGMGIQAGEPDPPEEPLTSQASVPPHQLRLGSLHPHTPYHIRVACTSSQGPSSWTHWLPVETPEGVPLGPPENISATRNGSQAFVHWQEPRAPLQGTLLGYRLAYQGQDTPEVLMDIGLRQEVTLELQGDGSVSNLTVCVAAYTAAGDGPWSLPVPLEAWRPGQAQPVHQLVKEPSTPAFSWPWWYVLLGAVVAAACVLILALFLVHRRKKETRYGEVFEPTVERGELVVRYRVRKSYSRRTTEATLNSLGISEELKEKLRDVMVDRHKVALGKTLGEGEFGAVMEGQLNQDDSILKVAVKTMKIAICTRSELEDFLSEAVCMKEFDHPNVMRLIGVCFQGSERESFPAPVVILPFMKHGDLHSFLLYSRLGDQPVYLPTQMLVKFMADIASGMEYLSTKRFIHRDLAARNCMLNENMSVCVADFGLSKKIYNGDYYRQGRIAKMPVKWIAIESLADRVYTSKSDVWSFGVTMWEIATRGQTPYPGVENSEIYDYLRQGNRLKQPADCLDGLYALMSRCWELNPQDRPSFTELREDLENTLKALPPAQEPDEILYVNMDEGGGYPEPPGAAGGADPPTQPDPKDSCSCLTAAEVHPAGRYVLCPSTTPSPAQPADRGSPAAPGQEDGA
As to the kind of experiment: flow cytometry on 786-O cells (second experiment, FIG. 10); 786-O cells; second experiment, FIG. 10. The method, then:
Cells in a logarithmic growth phase were collected; the cell density was regulated to 5×10⁶ cells/mL; and pre-cooling was performed on ice. The antibodies 6G12M11, 6G12M21, 6G12M31, and 6G12M41 were diluted to 20 μg/ml with pre-cooled normal saline containing 2% FBS. 100 μl of cells were taken, and an equal volume of each of the foregoing diluted antibodies was added to the cells to react for 30 minutes at 4° C. in the dark. After the completion of reaction, the cells were washed twice with pre-cooled physiological saline containing 2% FBS (6000 rpm, 45 s). The secondary antibody PE Mouse Anti-Human IgG (BD Pharmingen) was diluted at 1:5 with pre-cooled physiological saline containing 2% FBS, and 100 μL of the secondary antibody was taken for resuspending the cells, with a reaction conducted for 30 minutes at 4° C. in the dark. After the reaction, the cells were washed twice with pre-cooled physiological saline containing 2% FBS (6000 rpm, 45 s). The cells were resuspended by using 400 μl of 1% paraformaldehyde. The binding of antibodies to cell surface antigens was analyzed by means of a flow cytometer (BD Calibur).

B1: antibody 6G12M21 (antibody, human IgG1, kappa, V domains shown)
VH: QVQLVQSGPGLVKPSQSLSLTCSVTGFSISSGYYWNWIRQFPGQKLEWMGYRSYDGSNNYNPSLKNRISITRDTSKNQFFLKLNSVTSEDTATYYCARGWLLHYTMDYWGQGTTVTVSS
VL: DIVMTQSPSSVSVTLGQSASISCRSSRSLLHSNGFTYLYWYLQKPGQSPQLLIYQMSNLASGVPDRFSGSGSGTDFTLKISRVEAEDVGVYYCGQNLELPLTFGGGTKLEIKR
B1 came in with an EC50 of 0.4 µg/mL.

The record behind these values is patent US20220411531A1 (SUMGEN MAB BEIJING BIOTECH, published 2022).
